Laboratory results as given in patent US20240350546A1 (TEXAS A AND M UNIVERSITY SYSTEM, published 2024).

Molecular target: T1, CD26 on Rv-CD26-transduced Jurkat T cells (human, UniProt P27487 1-766)
T1 construct: whole, on cells; also called membrane CD26
Experiment: ADA membrane binding efficiency from ADA activity left in medium after 24 h co-culture; Rv-ADA-CD3-293T/CD26-Jurkat T as maximum, 293T/Jurkat T without CD26 as background
Description: Next, we investigated the binding efficacy of ADA-CD3 on T cells. Jurkat-Dual (NF-KB &IRF/IFN), Jurkat-Dual transduced with Rv-CD26 (Jurkat-Dual-CD26), Jurkat-NFAT or Jurkat-NFAT transduced with Rv-CD26 (Jurkat-NFAT-CD26) reporter cell lines were co-cultured with Rv-ADA or Rv-ADA-CD3 (scFv) transduced 293 T cells for 24 hours. The cell culture medium was then used to measure ADA by ADA activity assay. ADA membrane binding efficiency was calculated using Rv-ADA-CD3-293T/CD26-Jurkat T as maximum and 293T/JurkatT W/O CD26 as background.

T1 sequence (P27487 whole entry): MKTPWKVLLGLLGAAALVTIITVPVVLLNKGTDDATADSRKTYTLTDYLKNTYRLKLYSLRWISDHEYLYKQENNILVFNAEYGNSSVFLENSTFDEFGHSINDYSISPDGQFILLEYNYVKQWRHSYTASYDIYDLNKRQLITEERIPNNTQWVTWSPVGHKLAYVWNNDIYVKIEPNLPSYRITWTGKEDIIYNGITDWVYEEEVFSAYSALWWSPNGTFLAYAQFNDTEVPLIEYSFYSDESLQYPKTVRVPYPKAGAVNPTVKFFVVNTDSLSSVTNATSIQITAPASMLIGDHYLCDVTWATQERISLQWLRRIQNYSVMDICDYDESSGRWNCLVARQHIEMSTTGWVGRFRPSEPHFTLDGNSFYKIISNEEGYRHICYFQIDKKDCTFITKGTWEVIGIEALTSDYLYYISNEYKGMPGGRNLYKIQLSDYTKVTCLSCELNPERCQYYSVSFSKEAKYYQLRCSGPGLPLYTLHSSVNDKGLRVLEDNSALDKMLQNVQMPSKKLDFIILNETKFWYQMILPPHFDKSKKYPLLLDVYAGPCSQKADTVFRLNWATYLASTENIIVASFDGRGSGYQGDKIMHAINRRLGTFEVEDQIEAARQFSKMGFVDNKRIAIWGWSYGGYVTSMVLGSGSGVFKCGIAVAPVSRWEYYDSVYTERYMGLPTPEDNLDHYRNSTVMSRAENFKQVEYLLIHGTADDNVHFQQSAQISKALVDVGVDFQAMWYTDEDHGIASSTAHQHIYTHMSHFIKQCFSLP

ADA membrane binding efficiency (relative to secreted ADA-CD3): 40%
B1: secreted ADA (without CD3-scFv) (enzyme, human, UniProt P00813 1-363, looked up)
chain: MAQTPAFDKPKVELHVHLDGSIKPETILYYGRRRGIALPANTAEGLLNVIGMDKPLTLPDFLAKFDYYMPAIAGCREAIKRIAYEFVEMKAKEGVVYVEVRYSPHLLANSKVEPIPWNQAEGDLTPDEVVALVGQGLQEGERDFGVKARSILCCMRHQPNWSPKVVELCKKYQQQTVVAIDLAGDETIPGSSLLPGHVQAYQEAVKSGIHRTVHAGEVGSAEVVKEAVDILKTERLGHGYHTLEDQALYNRLRQENMHFEICPWSSYLTGAWKPDTEHAVIRLKNDQANYSLNTDDPLIFKSTLDTDYQMTKRDMGFTEEEFKRLNINAAKSSFLPEDEKRELLDLLYKAYGMPPSASAGQNL
notes: Secreted by Rv-ADA transduced 293 T cells in co-culture; also called ADA1; Rv-ADA
